Measurements from the supplement of paper PMC10126150.
± gives the standard deviation of the averaged measurements.

test system: ATP; assay: switch fluorescence ratio, 500 uM ATP over buffer (Cy3 cluster intensity, sum of 5 cycles each) (fold (ratio)); higher = stronger signal-on switching upon ATP binding; sequences stand for … in TCGTCGGCAGCGTCAGATGTGTATAAGAGACAGTTTTTTTTTTTTTTTTTTTTTTTTT…TC; settings: aptamer strand: ATP DNA aptamer (quencher-CACCTGGGGGAGTATTGCGGAGGAAGG + anchor), 100 nM annealed; ATP concentration: 500 uM
Summary of the method: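 The quencher-labelled ATP aptamer, at 100 nM, was annealed to Cy3-labelled switching-strand clusters on a modified Illumina MiSeq flow-cell. The clusters were imaged in selection buffer, then after 15 min with 500 uM ATP at 22 °C, and this buffer/ATP cycle ran five times with NaOH stripping and re-annealing between runs. Per-cluster fluorescence ratios, summed target-cycle over summed buffer-cycle Cy3 intensity, were averaged per switch-domain sequence. Clusters outside 100-1000 RFU were excluded.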
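Note: ATP exposure 15 min at 22 °C before imaging.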

Row | Sequence | switch fluorescence ratio
1 | AGGGATAAAA | 1.02 ± 0.055
2 | TTGTTGGTGA | 0.971 ± 0.033
3 | GATAGACGCA | 1.1 ± 0.089
4 | GGATTTCCAG | 0.999 ± 0.03
5 | TTGATGGGTA | 1.01 ± 0.032
6 | CTATGGGGGA | 1.04 ± 0.02
7 | GGCAGAGTGT | 1 ± 0.063
8 | AGACAGGGGT | 1.07 ± 0.098
9 | TATAACTCAT | 1.02 ± 0.029
10 | TCACTCTATC | 1.0455 ± 0.00057
11 | GATGGCATAA | 1.01 ± 0.025
12 | TGAAGGAGGT | 1 ± 0.015
13 | CATCATTGGC | 0.974 ± 0.092
14 | CGTTTTATCT | 1.03 ± 0.025
15 | GAAGCTGTTT | 1.026 ± 0.0042
16 | AAAGGATAGC | 1.017 ± 0.0044
17 | CAGAGTTAAT | 0.993 ± 0.045
18 | ATCACTCTTT | 1.02 ± 0.058
19 | TTCGAGCGAT | 1.78 ± 0.98
20 | AATCTGTCGT | 0.982 ± 0.054
21 | TCGTATGTTT | 0.985 ± 0.021
22 | ACGGAATTTT | 1.09 ± 0.08
23 | GTTTAGGGGT | 1.03 ± 0.081

Row | Sequence | switch fluorescence ratio
24 | ATGATTTTTT | 0.985 ± 0.012
25 | GGGTTGCCGA | 1.09 ± 0.19
26 | ATTCAGTTGC | 1.08 ± 0.072
27 | AATCGGTCGT | 0.994 ± 0.031
28 | GAATGTTAAT | 1.04 ± 0.027
29 | AGGGCAGCTT | 1.06 ± 0.025
30 | GCTACCTTTG | 1.01 ± 0.014
31 | ATTGGAGTTA | 0.999 ± 0.012
32 | CCCGAGGGTT | 1.01 ± 0.017
33 | AAGTCAGCGA | 1.02 ± 0.014
34 | CGGGGGGTGT | 1.01 ± 0.023
35 | GTTGAGTTGA | 1.01 ± 0.021
36 | GCGGAATGCA | 0.997 ± 0.025
37 | GGTTCTACTC | 1.02 ± 0.013
38 | CATCGTAAAT | 1.06 ± 0.016
39 | CGGTGGCGTC | 1.01 ± 0.048
40 | TCTTTAATTT | 0.985 ± 0.026
41 | TTTTAAGGGG | 1.02 ± 0.046
42 | CCGGAAGACG | 1.39 ± 0.18
43 | GGTGGGATGC | 1.02 ± 0.076
44 | TCATAAATTT | 1.01 ± 0.018
45 | TAAGAGGA | 0.991 ± 0.015
46 | CGTTTAGGGG | 0.9766 ± 0.0063

Row | Sequence | switch fluorescence ratio
47 | CACTGGGGAT | 0.981 ± 0.046
48 | TCGGGAGCCT | 0.973 ± 0.015
49 | GACGCTCAGC | 1.39 ± 0.019
50 | ACGGGGGCGC | 0.986 ± 0.059
51 | ACATAGCTGG | 1.01 ± 0.029
52 | CGGTTTGTTA | 0.985 ± 0.037
53 | TCGGCGGACA | 1 ± 0.023
54 | TATATTGGGG | 0.991 ± 0.018
55 | TTAAAATCCT | 1.12 ± 0.11
56 | GACAGGGCGG | 0.983 ± 0.049
57 | AGTACCATTG | 0.997 ± 0.015
58 | GGGGTCAGTG | 0.998 ± 0.054
59 | TTGGGAAAGT | 0.995 ± 0.017
60 | CTGGGTTTGG | 1 ± 0.025
61 | CAGGGTGGAC | 1.04 ± 0.04
62 | GTCTGAGGGG | 0.9965 ± 0.0061
63 | TGGGAGGCGT | 0.992 ± 0.02
64 | CGCGGTATCT | 1.02 ± 0.033
65 | GAGCTAGGGG | 1.03 ± 0.041
66 | AGCAATTTCG | 1.42 ± 0.081
67 | CGATGTAGGC | 1.05 ± 0.088
68 | TGTTACTAGC | 1.03 ± 0.0034
69 | TCTCCAGGAA | 1.62 ± 0.3

Row | Sequence | switch fluorescence ratio
70 | AACTTGAGAA | 1.01 ± 0.012
71 | ATATTGAGAT | 0.998 ± 0.037
72 | ACTTTTTTAG | 0.992 ± 0.019
73 | CCTGTAATTG | 1.03 ± 0.031
74 | TGTGGGGGTT | 0.986 ± 0.048
75 | CAAATAAATT | 0.989 ± 0.029
76 | GGTTATCCGG | 1.01 ± 0.032
77 | CCTGGGGCGT | 1.06 ± 0.12
78 | AGCGGTTAAT | 0.984 ± 0.019
79 | TTCAGCCGAG | 1.02 ± 0.014
80 | TAAGGCGAGT | 1.03 ± 0.052
81 | TGAAAAAAGG | 0.966 ± 0.03
82 | ACGGAAAGTT | 0.9876 ± 0.0071
83 | GGGAAATTAG | 1 ± 0.026
84 | CTATTAAGGT | 0.98 ± 0.021
85 | TTAGCGGGGG | 1.03 ± 0.06
86 | GAGCTGCAGT | 0.947 ± 0.047
87 | GAGTTGGAAG | 1.009 ± 0.0071
88 | TTGTTGAAGT | 0.9966 ± 0.0072
89 | TGGATGTGAT | 1.03 ± 0.049
90 | TAAGGGAGTG | 0.976 ± 0.031
91 | ACAACGAAAG | 1.039 ± 0.0061
92 | GGGTTTTGG | 0.998 ± 0.017

Row | Sequence | switch fluorescence ratio
93 | TTCTCGAGTT | 0.992 ± 0.013
94 | CGCCGTGTCG | 0.927 ± 0.049
95 | AGTAAAGATT | 0.9995 ± 0.0041
96 | CGAATTACGT | 0.992 ± 0.016
97 | TCAGCATGTC | 1.27 ± 0.036
98 | GTGGGTGCGG | 0.979 ± 0.051
99 | GGGGACCAAT | 1 ± 0.016
100 | ATTTATACGG | 1.02 ± 0.015
101 | ATCGTAAGGG | 0.983 ± 0.038
102 | AGATGGGGCG | 0.955 ± 0.088
103 | AACGATGTAA | 0.9951 ± 0.0059
104 | ACAAAAATAG | 0.993 ± 0.04
105 | CGCCTGGGAT | 1.03 ± 0.0027
106 | ATGTAACGAG | 1.01 ± 0.022
107 | GTTATTATTA | 0.993 ± 0.019
108 | ATTAGACCCT | 1.038 ± 0.005
109 | GCGAGTTTGC | 1.02 ± 0.017
110 | TGAGGTAAGG | 0.997 ± 0.033
111 | AAGAATGACT | 0.977 ± 0.014
112 | TTCACGAGTG | 0.988 ± 0.052
113 | GACATGGCAG | 1.02 ± 0.04
114 | TTTTAGTTAG | 1.03 ± 0.058
115 | CCACGCCTGT | 1.09 ± 0.022

Row | Sequence | switch fluorescence ratio
116 | AAGTGCCGAG | 0.989 ± 0.027
117 | GTTACTGTTC | 0.98 ± 0.13
118 | ATCAGCGATC | 2.24 ± 0.22
119 | TGTTATTGGG | 0.987 ± 0.042
120 | TTCTGTAATT | 1.02 ± 0.018
121 | CTATGATTGT | 0.977 ± 0.04
122 | GCAGTAGCAA | 1.08 ± 0.03
123 | AGTTGATTGG | 0.983 ± 0.027
124 | GGGACGCGCA | 0.984 ± 0.036
125 | AAAGTGATTA | 1.01 ± 0.022
126 | GCGTTCGGCC | 1.01 ± 0.016
127 | TGCAGAGCAC | 1.01 ± 0.028
128 | AGACTCTGGT | 0.969 ± 0.015
129 | AAGGGGGTGA | 1.01 ± 0.025
130 | GGTCTTTGAA | 0.979 ± 0.023
131 | CACGTCTGAA | 0.996 ± 0.047
132 | GAGTTATGGG | 0.9963 ± 0.0048
133 | GGGTGGGTTG | 1 ± 0.039
134 | GGTTTCTCCG | 1.46 ± 0.017
135 | AACGCACGTT | 1.28 ± 0.02
136 | TTTTACAGCC | 1.052 ± 0.0051
137 | CCTGCAGTTT | 1.04 ± 0.019
138 | TATTTCGAAT | 1.11 ± 0.18

Row | Sequence | switch fluorescence ratio
139 | CTGGCACAGA | 0.988 ± 0.019
140 | GATACGCCAC | 2.11 ± 0.06
141 | GGGGAATTGG | 0.994 ± 0.024
142 | AGCAGAGGGT | 0.994 ± 0.04
143 | TTTAGAATAC | 1.51 ± 0.42
144 | TTTAATAAAA | 0.988 ± 0.013
145 | ATTGGGATCC | 1.02 ± 0.029
146 | GGTTTTATGC | 0.985 ± 0.0053
147 | AGAGGAGTGT | 0.943 ± 0.0098
148 | GAGGATGGTT | 0.964 ± 0.04
149 | CCTTTTTGGT | 1.016 ± 0.01
150 | TTTTCAGATT | 0.9601 ± 0.0086
151 | GGATGCGGGT | 1 ± 0.03
152 | TTGAGCATAG | 1.43 ± 0.44
153 | ATCGTGTTTG | 0.952 ± 0.043
154 | GAGGAAGATT | 1.02 ± 0.021
155 | AGTCCGATGC | 1.51 ± 0.17
156 | CAGATTTTTA | 1.01 ± 0.029
157 | TATAGCTAAT | 1.027 ± 0.0041
